Test results as given in US20240132578A1.

Legend:
Assay in all cases: cell-based or functional assay
[1] = target: HIV-1 92BR020 Env (pseudovirus) (HIV-1)
[2] = target: HIV-1 NL43 Env (pseudovirus) (HIV-1)
[3] = target: HIV-1 envelope glycoprotein (Env) of isolate 92BR020 (HIV-1)
[4] = target: HIV-1 envelope glycoprotein (Env) of isolate 92UG005 (HIV-1)
[5] = target: HIV-1 envelope glycoprotein (Env) of isolate APV13 (HIV-1)
[6] = target: HIV-1 envelope glycoprotein (Env) of isolate NL43 (HIV-1)
[7] = target: HIV-1 92BR020 envelope glycoprotein (Env) (HIV-1)
[8] = target: HIV-1 APV17 envelope glycoprotein (Env) (HIV-1)
[9] = target: HIV-1 MGRM-C-027 envelope glycoprotein (Env) (HIV-1)
[10] = target: aMLV envelope protein
[11] = target: HIV-1 93UG077 envelope glycoprotein (Env) on virus (HIV-1, clade A, isolate 93UG077)
[12] = target: HIV-1 94UG103 envelope glycoprotein (Env) on virus (HIV-1, clade A, isolate 94UG103)
[13] = target: HIV-1 APV6 envelope glycoprotein (Env) on virus (HIV-1, clade B, isolate APV6)
[14] = target: HIV-1 JRCSF envelope glycoprotein (Env) on virus (HIV-1, clade B, isolate JRCSF) (UniProt P20871)
[15] = target: HIV-1 MGRM-D-018 envelope glycoprotein (Env) on virus (HIV-1, clade D, isolate MGRM-D-018)
[16] = target: HIV-1 92RW020 envelope glycoprotein (Env) on pseudovirus (HIV-1)
[17] = target: aMLV envelope protein on pseudovirus (control virus)
[18] = target: Envelope protein of control pseudovirus MuLV (MuLV)
[19] = target: HIV-1 Env of isolate 92BR020 (subtype B), on pseudovirus (HIV-1)
[20] = target: HIV-1 Env of isolate 92UG005 (subtype D) (HIV-1)
[21] = target: HIV-1 Env of isolate MG RM-D-001 (subtype D) (HIV-1)
[22] = target: HIV-1 JR-CSF Env E321aA (HIV-1 (isolate JR-CSF, clade B)) (UniProt P20871)
[23] = target: HIV-1 92RW020 Env (HIV-1 isolate 92RW020 (clade A))
[24] = target: HIV-1 94UG103 Env (HIV-1 isolate 94UG103 (clade A))
[25] = target: HIV-1 APV13 Env (HIV-1 isolate APV13 (clade B))
[26] = target: HIV-1 APV6 Env (HIV-1 isolate APV6 (clade B))
[27] = target: HIV-1 MGRM-C-027 Env (HIV-1 isolate MGRM-C-027 (clade C))
[28] = target: HIV-1 93IN905 envelope glycoprotein (Env), clade C pseudovirus (HIV-1)
[29] = target: HIV-1 MGRM-A-010 envelope glycoprotein (Env), clade A pseudovirus (HIV-1)
[30] = target: HIV-1 MGRM-D-001 envelope glycoprotein (Env), clade D pseudovirus (HIV-1)

Sequence of 5329_C19 (PGT-136) (antibody) (VH): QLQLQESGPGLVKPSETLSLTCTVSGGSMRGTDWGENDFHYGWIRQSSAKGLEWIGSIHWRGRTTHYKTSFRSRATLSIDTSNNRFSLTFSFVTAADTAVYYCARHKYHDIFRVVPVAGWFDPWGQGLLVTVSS
Sequence of 5329_C19 (PGT-136) (antibody) (VL): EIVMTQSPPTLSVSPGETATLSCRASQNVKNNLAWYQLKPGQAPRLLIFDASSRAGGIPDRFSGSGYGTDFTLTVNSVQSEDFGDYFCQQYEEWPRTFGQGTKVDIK
Sequence of 1443_C16 (PG16) (TCN-116) (antibody) (VH): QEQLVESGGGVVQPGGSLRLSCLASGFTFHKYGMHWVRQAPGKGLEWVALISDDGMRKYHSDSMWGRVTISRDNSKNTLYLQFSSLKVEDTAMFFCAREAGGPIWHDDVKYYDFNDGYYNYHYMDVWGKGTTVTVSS
Sequence of 1443_C16 (PG16) (TCN-116) (antibody) (VL): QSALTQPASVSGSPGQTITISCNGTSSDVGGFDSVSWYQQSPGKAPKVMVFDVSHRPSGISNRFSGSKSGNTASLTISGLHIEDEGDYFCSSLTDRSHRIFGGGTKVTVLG

In the case of 5123_A06 (PGT-125) (antibody), the Neutralization by PGT-125, IC50 [1] is reported as 0.0214 µg/mL, the Neutralization by PGT-125, IC80 [1] is reported as 0.0738 µg/mL and the Neutralization by PGT-125, IC90 [1] is reported as 0.156 µg/mL. The Neutralization by PGT-125, IC95 [1] was 0.323 µg/mL, the Neutralization by PGT-125, IC50 [2] was over 10 µg/mL and the Neutralization by PGT-125, IC80 [2] was over 10 µg/mL. It also gave a Neutralization by PGT-125, IC90 [2] of over 10 µg/mL and a Neutralization by PGT-125, IC95 [2] of over 10 µg/mL.

5141_B17 (PGT-126) (antibody) was tested, and the Neutralization IC80 [3] was 0.0457 µg/mL, the Neutralization IC90 [3] was 0.0846 µg/mL and the Neutralization IC95 [3] was 0.152 µg/mL. The neutralization IC50 [3] was 0.0163 µg/mL, the Neutralization IC80 [4] was 0.145 µg/mL and the Neutralization IC90 [4] was 0.553 µg/mL. For the same substance, the Neutralization IC95 [4] was 2.45 µg/mL, the neutralization IC50 [4] was 0.0181 µg/mL and the Neutralization IC80 [5] was 0.0411 µg/mL. For the same substance, the Neutralization IC90 [5] was 0.084 µg/mL, the Neutralization IC95 [5] was 0.162 µg/mL and the neutralization IC50 [5] was 0.012 µg/mL. For the same substance, the Neutralization IC80 [6] was over 10 µg/mL, the Neutralization IC90 [6] was over 10 µg/mL and the Neutralization IC95 [6] was over 10 µg/mL. For the same substance, the neutralization IC50 [6] was over 10 µg/mL.

5329_C19 (PGT-136) (antibody) gave a Neutralization IC80 [7] of over 10 µg/mL, a Neutralization IC90 [7] of over 10 µg/mL and a Neutralization IC95 [7] of over 10 µg/mL. The neutralization IC50 [7] was over 10 µg/mL, the Neutralization IC80 [8] was over 10 µg/mL and the Neutralization IC90 [8] was over 10 µg/mL. For the same substance, the Neutralization IC95 [8] was over 10 µg/mL, the neutralization IC50 [8] was over 10 µg/mL and the Neutralization IC80 [9] was over 10 µg/mL. For the same substance, the Neutralization IC90 [9] was over 10 µg/mL, the Neutralization IC95 [9] was over 10 µg/mL and the neutralization IC50 [9] was over 10 µg/mL. It also gave a Neutralization IC80 [10] of over 10 µg/mL, a Neutralization IC90 [10] of over 10 µg/mL and a Neutralization IC95 [10] of over 10 µg/mL. For the same substance, the neutralization IC50 [10] was over 10 µg/mL.

For 4877_D15 (PGT-122) (antibody), the Neutralization IC80 [11] was 0.931 µg/mL, the Neutralization IC90 [11] was 2.1 µg/mL and the Neutralization IC95 [11] was 3.88 µg/mL. For the same substance, the neutralization IC50 [11] was 0.191 µg/mL, the Neutralization IC80 [12] was 6.58 µg/mL and the Neutralization IC90 [12] was over 10 µg/mL. It also gave a Neutralization IC95 [12] of over 10 µg/mL, a neutralization IC50 [12] of 1.46 µg/mL and a Neutralization IC80 [13] of 0.351 µg/mL. It also gave a Neutralization IC90 [13] of 0.779 µg/mL, a Neutralization IC95 [13] of 1.55 µg/mL and a neutralization IC50 [13] of 0.0851 µg/mL. The Neutralization IC80 [14] was 0.245 µg/mL, the Neutralization IC90 [14] was 0.494 µg/mL and the Neutralization IC95 [14] was 0.926 µg/mL. For the same substance, the neutralization IC50 [14] was 0.0727 µg/mL, the Neutralization IC80 [15] was 0.035 µg/mL and the Neutralization IC90 [15] was 0.0674 µg/mL. For the same substance, the Neutralization IC95 [15] was 0.125 µg/mL and the neutralization IC50 [15] was 0.0115 µg/mL.

Work on 5343_B08 (PGT-135) (antibody) yielded a Neutralization IC80 [16] of 3.46 µg/mL, a Neutralization IC90 [16] of over 10 µg/mL and a Neutralization IC95 [16] of over 10 µg/mL. The neutralization IC50 [16] was 0.157 µg/mL, the Neutralization IC80 [17] was over 10 µg/mL and the Neutralization IC90 [17] was over 10 µg/mL. The Neutralization IC95 [17] was over 10 µg/mL and the neutralization IC50 [17] was over 10 µg/mL.

Work on 1443_C16 (PG16) (TCN-116) (antibody) yielded an IC50, pseudovirus neutralization (TZM-bl assay), control virus [18] of over 25 µg/mL.

Substance PGV04 (antibody) has an IC50, single-round pseudovirus neutralization [19] of 0.25 µg/mL, an IC50 (µg/mL), pseudovirus neutralization [20] of 0.44 µg/mL and an IC50 (µg/mL), pseudovirus neutralization [21] of over 50 µg/mL.

Substance 5136_H01 (PGT-131) (antibody) has a Fold IC50 increase relative to wild-type [22] of 1.8 fold.

In the case of 4838_L06 (PGT-121) (antibody), the Neutralization IC80 [23] is reported as 0.0188 µg/mL, the Neutralization IC90 [23] is reported as 0.0361 µg/mL and the Neutralization IC95 [23] is reported as 0.0671 µg/mL. It also gave a Neutralization IC80 [24] of 8.85 µg/mL, a Neutralization IC80 [25] of 1.31 µg/mL and a Neutralization IC90 [25] of 2.8 µg/mL. For the same substance, the Neutralization IC95 [25] was 5.15 µg/mL, the Neutralization IC80 [26] was 0.145 µg/mL and the Neutralization IC95 [26] was 0.569 µg/mL. The Neutralization IC80 [27] was 0.0829 µg/mL, the Neutralization IC90 [27] was 0.374 µg/mL and the Neutralization IC95 [27] was 3.14 µg/mL.

With 4858_P08 (PGT-123) (antibody) the IC50, pseudovirus neutralization [28] was 0.0071 µg/mL, the IC80 (pseudovirus neutralization) [28] was 0.0281 µg/mL and the IC90 (pseudovirus neutralization) [28] was 0.0625 µg/mL. For the same substance, the IC95 (pseudovirus neutralization) [28] was 0.131 µg/mL, the IC50, pseudovirus neutralization [29] was 0.492 µg/mL and the IC80 (pseudovirus neutralization) [29] was 2.79 µg/mL. The IC90 (pseudovirus neutralization) [29] was 6.44 µg/mL, the IC95 (pseudovirus neutralization) [29] was over 10 µg/mL and the IC50, pseudovirus neutralization [30] was 0.215 µg/mL. The IC80 (pseudovirus neutralization) [30] was 0.678 µg/mL, the IC90 (pseudovirus neutralization) [30] was 1.31 µg/mL and the IC95 (pseudovirus neutralization) [30] was 2.33 µg/mL.
